Measurements: patent publication US6403087 (Biogen, dated 2002)

How the values were obtained:
Experiment in all cases: cell-based or functional assay
[1] = target: T1, soluble human LT-α1/β2 ligand (hLT-α1/β2) (human, UniProt P01374 35-205; Q06643 49-244, limits assumed)
T1 sequence (looked up) 1: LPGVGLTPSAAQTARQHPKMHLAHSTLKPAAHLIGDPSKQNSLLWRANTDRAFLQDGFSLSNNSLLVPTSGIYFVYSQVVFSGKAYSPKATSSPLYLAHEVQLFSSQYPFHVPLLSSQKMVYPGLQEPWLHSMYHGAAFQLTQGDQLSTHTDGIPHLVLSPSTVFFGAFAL
T1 sequence (looked up) 2: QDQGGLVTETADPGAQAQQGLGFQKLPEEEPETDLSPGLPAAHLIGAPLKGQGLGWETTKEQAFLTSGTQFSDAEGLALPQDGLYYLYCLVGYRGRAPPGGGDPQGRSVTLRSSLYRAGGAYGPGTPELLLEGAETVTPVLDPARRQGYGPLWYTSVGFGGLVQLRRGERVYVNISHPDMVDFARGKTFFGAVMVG

[2] = target: hTNF (human, UniProt P01375 77-233)
[3] = target: T2, hLT-α (human, UniProt P01374 35-205, limits assumed)
T2 sequence (looked up): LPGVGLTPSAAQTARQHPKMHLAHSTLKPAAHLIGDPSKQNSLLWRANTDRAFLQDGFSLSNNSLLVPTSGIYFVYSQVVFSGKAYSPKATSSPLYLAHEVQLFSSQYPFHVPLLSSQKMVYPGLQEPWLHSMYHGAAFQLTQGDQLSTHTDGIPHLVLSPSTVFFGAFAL

Sequence of hTNF (P01375 77-233 limits assumed): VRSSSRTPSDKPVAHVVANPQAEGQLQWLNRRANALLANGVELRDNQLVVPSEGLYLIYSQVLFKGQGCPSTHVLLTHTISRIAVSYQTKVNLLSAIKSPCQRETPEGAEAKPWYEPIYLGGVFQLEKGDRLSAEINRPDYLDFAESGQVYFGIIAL

B1: soluble human LT-β receptor-immunoglobulin Fc fusion protein (hLT-β-R-Fc) (Fc fusion, not shown: a dimerising Fc or GST)
chain: QAVPPYASENQTCRDQEKEYYEPQHRICCSRCPPGTYVSAKCSRIRDTVCATCAENSYNEHWNYLTICQLCRPCDPVMGLEEIAPCTSKRKTQCRCQPGMFCAAWALECTHCELLSDCPPGTEAELKDEVGKGNNHCVPCKAGHFQNTSSPSARCQPHTRCENQGLVEAAPGTAQSDTTCKNPLEPLPPEMSGT
For B1, the “Concentration of Cytotoxic Agent (ng/ml) Resulting in 50% Growth Inhibition of HT29 cells, in the presence of 5 µg/ml LT-β-R-Fc” value [1] was greater than 200 ng/mL, the “Concentration of Cytotoxic Agent (ng/ml) Resulting in 50% Growth Inhibition of HT29 cells, in the presence of 5 µg/ml LT-β-R-Fc” value [2] was 0.08 ng/mL and the “Concentration of Cytotoxic Agent (ng/ml) Resulting in 50% Growth Inhibition of HT29 cells, in the presence of 5 µg/ml LT-β-R-Fc” value [3] was 3 ng/mL.

B2: soluble TNF-R fusion protein (p55-TNF-R-Fc) (Fc fusion, UniProt P19438 30-211, looked up, not shown: a dimerising Fc or GST)
chain: LVPHLGDREKRDSVCPQGKYIHPQNNSICCTKCHKGTYLYNDCPGPGQDTDCRECESGSFTASENHLRHCLSCSKCRKEMGQVEISSCTVDRDTVCGCRKNQYRHYWSENLFQCFNCSLCLNGTVHLSCQEKQNTVCTCHAGFFLRENECVSCSNCKKSLECTKLCLPQIENVKGTEDSGTT
With B2 the “Concentration of Cytotoxic Agent (ng/ml) Resulting in 50% Growth Inhibition of HT29 cells, in the presence of 5 µg/ml p55-TNF-R-Fc” value [1] was 5 ng/mL and the “Concentration of Cytotoxic Agent (ng/ml) Resulting in 50% Growth Inhibition of HT29 cells, in the presence of 5 µg/ml p55-TNF-R-Fc” value [3] was greater than 1000 ng/mL.
